Laboratory results from article doi:10.1101/2022.11.17.516996v1 (bioRxiv, 2022).

Key:
lysosomal compartment = conditions: from 25 nM in extracellular fluid; ref [58]; cited from earlier work
[1] = tested on: caveolin-1 phosphorylation on tyrosine 14; assay: Phospho-caveolin-1; type: cell-based, human; conditions: Src kinase inhibitor pretreatment before Aβ42; hCMEC/D3 cells; western blotting
[2] = tested on: polarized hCMEC/D3 cell monolayers; assay: Energy dependent uptake of F-Aβ, flow cytometry with or without ATP depletion; type: in vitro ADME, human; conditions: 1 μM, 30 min; flow cytometry histograms

Row | Compound | intra-endothelial accumulation in ATP depleted cells compared to control cells [2] | further results
1 | amyloid beta peptide 42 [Aβ42] |  | concentration in the lysosomal compartment (lysosomal compartment): 2500 nM
2 | Cc1ccc(-c2nn(C(C)(C)C)c3ncnc(N)c23)cc1 [PP1] |  | effect of pretreatment on Aβ42 induced caveolin-1 phosphorylation [1]: block the phosphorylation
3 | F-Aβ40: fluorescently labeled soluble Aβ40 | significantly reduced | 
4 | F-Aβ42: fluorescently labeled soluble Aβ42 | significantly reduced | 
